Series [1] addresses microtubules (polymerized tubulin, taxol-stabilised).
Series [2] has the same target. Briefly: co-sedimentation; 100 uL with 25 ug taxol-stabilised MTs and 50 ug NtKRP-motor in PEM buffer pH 6.8; without nucleotide, with ATP or with AMPPNP; room temperature 30 min, 25,000 x g 20 min at 25 C; SDS-PAGE of supernatant and pellet, Coomassie.
A further series addresses T1, MBP-NtKRP-Motor (Nicotiana tabacum, UniProt A0A0D3QSP8).
T1 construct: gene KRP; MBP-tagged motor domain, purified; motor 1-556 elsewhere
T1 sequence (A0A0D3QSP8 55-470 limits assumed): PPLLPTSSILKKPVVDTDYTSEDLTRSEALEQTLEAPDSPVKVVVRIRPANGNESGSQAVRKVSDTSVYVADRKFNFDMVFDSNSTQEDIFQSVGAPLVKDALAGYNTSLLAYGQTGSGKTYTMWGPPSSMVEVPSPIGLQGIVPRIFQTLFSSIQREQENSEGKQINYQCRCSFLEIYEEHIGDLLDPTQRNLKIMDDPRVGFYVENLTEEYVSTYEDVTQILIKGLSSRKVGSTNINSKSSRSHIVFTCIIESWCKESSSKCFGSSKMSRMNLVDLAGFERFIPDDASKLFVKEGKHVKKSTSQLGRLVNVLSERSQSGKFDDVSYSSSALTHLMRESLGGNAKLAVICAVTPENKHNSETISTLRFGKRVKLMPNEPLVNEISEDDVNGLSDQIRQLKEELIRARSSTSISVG
Briefly: microtubule co-sedimentation, SDS-PAGE. The format is binding. Conditions: taxol-stabilised microtubules, PEM buffer with 1 mM MgCl2, pH 6.8; nucleotide 5 µM.

Substrate in series [3]: Nc1ncnc2c1ncn2[C@@H]1O[C@H](COP(=O)(O)OP(=O)(O)OP(=O)(O)O)[C@@H](O)[C@H]1O
Briefly: isothermal titration calorimetry ATPase assay. The format is biochemical, Nicotiana tabacum. Conditions: microtubules 4.4 µM (Methods print 1.67 µM MTs), 10 µM taxol, BRB80 with 1 mM MgCl2, 50 mM NaCl, pH 6.8, 25 °C.

The text below walks through data of PMC5078848, “NtKRP, a kinesin-12 protein, regulates embryo/seed size and seed germination via involving in cell cycle progression at the G2/M transition” (Scientific Reports, 2016).

In general, Km refers to the concentration of substrate that gives half-maximal velocity. Broadly, the kcat is the number of substrate molecules converted per active site and unit of time at saturation.

As to “recombinant NtKRP motor domain (amino acids 1–556) (domain or fragment)”, the K0.5,MT of the MT-stimulated ATPase activity of the motor domain (coupled enzyme assay, 1 mM ATP, 0-5 uM MTs) in series [1] worked out at 22 µM. “MBP-NtKRP motor domain fusion protein (domain or fragment)” gave a percent coprecipitated with MTs (absence of ATP) in series [2] of 50%.

Regarding `Nc1ncnc2c1ncn2[C@@H]1O[C@H](COP(=O)(O)OP(=O)(O)NP(=O)(O)O)[C@@H](O)[C@H]1O` [AMPPNP], on MBP-NtKRP-Motor, the “microtubule co-sedimentation, SDS-PAGE” value was “nonhydrolyzable ATP analog AMPPNP was used in place of ATP, most of the fusion protein”. In the case of `Nc1ncnc2c1ncn2[C@@H]1O[C@H](COP(=O)(O)OP(=O)(O)OP(=O)(O)O)[C@@H](O)[C@H]1O` [ATP], the “microtubule co-sedimentation, SDS-PAGE” value on MBP-NtKRP-Motor is given as “The addition of ATP significantly reduced the amount of the fusion protein co-sediment”.

B1: NtKRP motor domain (recombinant motor protein, amino acids 1–556) (Nicotiana tabacum) (protein)
chain: MSENRFLGNISASSIRNLLPKSVSTKKKLNSSRFKHKMNSENVAPIDPNIQITDPPLLPTSSILKKPVVDTDYTSEDLTRSEALEQTLEAPDSPVKVVVRIRPANGNESGSQAVRKVSDTSVYVADRKFNFDMVFDSNSTQEDIFQSVGAPLVKDALAGYNTSLLAYGQTGSGKTYTMWGPPSSMVEVPSPIGLQGIVPRIFQTLFSSIQREQENSEGKQINYQCRCSFLEIYEEHIGDLLDPTQRNLKIMDDPRVGFYVENLTEEYVSTYEDVTQILIKGLSSRKVGSTNINSKSSRSHIVFTCIIESWCKESSSKCFGSSKMSRMNLVDLAGFERFIPDDASKLFVKEGKHVKKSTSQLGRLVNVLSERSQSGKFDDVSYSSSALTHLMRESLGGNAKLAVICAVTPENKHNSETISTLRFGKRVKLMPNEPLVNEISEDDVNGLSDQIRQLKEELIRARSSTSISVGSNGYFRGPNVRESLNQLRVSLNRSLILPSIDNDREEEIHINEDDIKELQLQIDNLRGSHGDNSKETLEKKDSLKYSSGESEHYLSC
notes: N-terminal motor domain fragment, residues 1-556 of 1194 (full length 134 kDa); recombinant
Turning to B1, in series [3], the Km was found to be 2.4 µM and the kcat was 80.3 s⁻¹.
